Test results: article PMC13334617 (Advanced Science, 2026)

Target: wild-type AC fused to GFP (AC-GFP), encoded by plasmid pAC0-Gfp (GFP: Aequorea victoria (variant not …, UniProt P42212 = GFP))
Assay: two-hybrid
Conditions: partners not purified

B1: CaM fused to the V9A nanobody at its N-terminus and a tetra-cysteine tag at its C-terminus (CaM-V9A), encoded by plasmid pTCam-V9A (VHH)
VHH: DVQLQESGGGSVQAGGSLRLSCAASGDTFSSYSMAWFRQAPGKECELVSNILRDGTTTYAGSVKGRFTISRDDAKNTVYLQMVNLKSEDTARYYCAADSGTQLGYVGAVGLSCLDYVMDYWGKGTQVTVSS
notes: source: E. coli DHM1, expressed in cells from plasmid pTCam-V9A (high expression); not shown: tetra-cysteine tag, C-terminal, kept
cAMP: > 250 nmol/mg
ß gal (Rel. Units): 107 Rel. Units
